Patent publication US20190233493A1 (Sanofi, published 2019)
Each block holds one binder with its values, some of them ahead of it. *1 amine or outer side, *2 acyl side, *3 side chain or, on linkers, in order; H or OH if unused. Side-chain parts run from the residue outwards. [ ]: non-standard residue; d: D form. The star is where a group is joined. PEG12 = NCCOCCOCCOCCOCCOCCOCCOCCOCCOCCOCCOCCOCCC(=O)O; γGlu = O=C(O)[C@H](CCC(=O)[*:2])N[*:1]; 1Nal = N[C@@H](Cc1cccc2ccccc12)C(=O)O; Stearoyl = CCCCCCCCCCCCCCCCCC(=O)*; Palmitoyl = CCCCCCCCCCCCCCCC(=O)*; Nle = CCCC[C@H](N)C(=O)O; Aib = CC(C)(N)C(=O)O

Target: T1, RXFP1 receptor (UniProt Q9HBX9 1-757, limits assumed)
T1 sequence (looked up): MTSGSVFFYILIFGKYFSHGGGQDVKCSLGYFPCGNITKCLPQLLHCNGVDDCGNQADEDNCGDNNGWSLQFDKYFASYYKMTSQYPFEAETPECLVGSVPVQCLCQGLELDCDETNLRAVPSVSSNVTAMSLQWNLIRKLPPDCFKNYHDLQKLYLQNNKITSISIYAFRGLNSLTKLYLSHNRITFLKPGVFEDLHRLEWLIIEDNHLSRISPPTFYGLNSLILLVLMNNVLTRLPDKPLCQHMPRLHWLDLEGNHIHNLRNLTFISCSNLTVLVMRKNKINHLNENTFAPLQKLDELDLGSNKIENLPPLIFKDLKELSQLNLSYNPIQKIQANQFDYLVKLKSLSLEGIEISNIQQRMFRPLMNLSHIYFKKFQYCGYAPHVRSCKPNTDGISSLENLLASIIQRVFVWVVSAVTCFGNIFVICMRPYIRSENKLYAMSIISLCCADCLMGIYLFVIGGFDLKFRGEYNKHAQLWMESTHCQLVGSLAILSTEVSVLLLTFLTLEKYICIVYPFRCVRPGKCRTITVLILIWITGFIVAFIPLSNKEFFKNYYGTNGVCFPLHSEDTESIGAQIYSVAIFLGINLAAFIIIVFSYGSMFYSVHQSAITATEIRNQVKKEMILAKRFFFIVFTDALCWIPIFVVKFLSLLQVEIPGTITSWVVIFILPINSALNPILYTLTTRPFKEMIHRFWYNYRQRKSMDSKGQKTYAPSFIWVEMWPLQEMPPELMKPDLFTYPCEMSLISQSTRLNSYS
Experiment: cell-based or functional assay

B1: peptide of SEQ ID NO: 26 (peptide)
peptide: Ac-LEGREKVRAK(Ac)I[Aib][Aib]EG[Nle]STWS[Aib]RKK(Ac)[PEG12]K([γGlu-γGlu-γGlu-Palmitoyl])-NH2
SMILES: CCCCCCCCCCCCCCCC(=O)N[C@@H](CCC(=O)N[C@@H](CCC(=O)N[C@@H](CCC(=O)NCCCC[C@H](NC(=O)CCOCCOCCOCCOCCOCCOCCOCCOCCOCCOCCOCCOCCNC(=O)[C@H](CCCCNC(C)=O)NC(=O)[C@H](CCCCN)NC(=O)[C@H](CCCNC(=N)N)NC(=O)C(C)(C)NC(=O)[C@H](CO)NC(=O)[C@H](Cc1c[nH]c2ccccc12)NC(=O)[C@@H](NC(=O)[C@H](CO)NC(=O)[C@H](CCCC)NC(=O)CNC(=O)[C@H](CCC(=O)O)NC(=O)C(C)(C)NC(=O)C(C)(C)NC(=O)[C@@H](NC(=O)[C@H](CCCCNC(C)=O)NC(=O)[C@H](C)NC(=O)[C@H](CCCNC(=N)N)NC(=O)[C@@H](NC(=O)[C@H](CCCCN)NC(=O)[C@H](CCC(=O)O)NC(=O)[C@H](CCCNC(=N)N)NC(=O)CNC(=O)[C@H](CCC(=O)O)NC(=O)[C@H](CC(C)C)NC(C)=O)C(C)C)[C@@H](C)CC)[C@@H](C)O)C(N)=O)C(=O)O)C(=O)O)C(=O)O
EC50 (nM), OVCAR 5 cells (cAMP): 0.57 nM
EMax, OVCAR 5 cells (cAMP): 85%

B2: peptide of SEQ ID NO: 28 (peptide)
peptide: Ac-LEGREKVR[Aib]QI[Aib][Aib]EG[Nle]STWS[Aib]RKK(Ac)[PEG12]K([γGlu-γGlu-γGlu-Palmitoyl])-NH2
SMILES: CCCCCCCCCCCCCCCC(=O)N[C@@H](CCC(=O)N[C@@H](CCC(=O)N[C@@H](CCC(=O)NCCCC[C@H](NC(=O)CCOCCOCCOCCOCCOCCOCCOCCOCCOCCOCCOCCOCCNC(=O)[C@H](CCCCNC(C)=O)NC(=O)[C@H](CCCCN)NC(=O)[C@H](CCCNC(=N)N)NC(=O)C(C)(C)NC(=O)[C@H](CO)NC(=O)[C@H](Cc1c[nH]c2ccccc12)NC(=O)[C@@H](NC(=O)[C@H](CO)NC(=O)[C@H](CCCC)NC(=O)CNC(=O)[C@H](CCC(=O)O)NC(=O)C(C)(C)NC(=O)C(C)(C)NC(=O)[C@@H](NC(=O)[C@H](CCC(N)=O)NC(=O)C(C)(C)NC(=O)[C@H](CCCNC(=N)N)NC(=O)[C@@H](NC(=O)[C@H](CCCCN)NC(=O)[C@H](CCC(=O)O)NC(=O)[C@H](CCCNC(=N)N)NC(=O)CNC(=O)[C@H](CCC(=O)O)NC(=O)[C@H](CC(C)C)NC(C)=O)C(C)C)[C@@H](C)CC)[C@@H](C)O)C(N)=O)C(=O)O)C(=O)O)C(=O)O
EC50 (nM), OVCAR 5 cells (cAMP): 4.64 nM
EMax, OVCAR 5 cells (cAMP): 78%

B7: peptide of SEQ ID NO: 27 (peptide)
peptide: Ac-LEGREKVR[Aib]K(Ac)I[Aib][Aib]EG[Nle]STWS[Aib]RKK(Ac)[PEG12]K([γGlu-γGlu-γGlu-Palmitoyl])-NH2
SMILES: CCCCCCCCCCCCCCCC(=O)N[C@@H](CCC(=O)N[C@@H](CCC(=O)N[C@@H](CCC(=O)NCCCC[C@H](NC(=O)CCOCCOCCOCCOCCOCCOCCOCCOCCOCCOCCOCCOCCNC(=O)[C@H](CCCCNC(C)=O)NC(=O)[C@H](CCCCN)NC(=O)[C@H](CCCNC(=N)N)NC(=O)C(C)(C)NC(=O)[C@H](CO)NC(=O)[C@H](Cc1c[nH]c2ccccc12)NC(=O)[C@@H](NC(=O)[C@H](CO)NC(=O)[C@H](CCCC)NC(=O)CNC(=O)[C@H](CCC(=O)O)NC(=O)C(C)(C)NC(=O)C(C)(C)NC(=O)[C@@H](NC(=O)[C@H](CCCCNC(C)=O)NC(=O)C(C)(C)NC(=O)[C@H](CCCNC(=N)N)NC(=O)[C@@H](NC(=O)[C@H](CCCCN)NC(=O)[C@H](CCC(=O)O)NC(=O)[C@H](CCCNC(=N)N)NC(=O)CNC(=O)[C@H](CCC(=O)O)NC(=O)[C@H](CC(C)C)NC(C)=O)C(C)C)[C@@H](C)CC)[C@@H](C)O)C(N)=O)C(=O)O)C(=O)O)C(=O)O
EC50 (nM), OVCAR 5 cells (cAMP): 0.3 nM
EMax, OVCAR 5 cells (cAMP): 86%

Results, then the binder that gave them:

EC50 (nM), OVCAR 5 cells (cAMP): 0.92 nM
EMax, OVCAR 5 cells (cAMP): 89%
B3: peptide of SEQ ID NO: 30 (peptide)
peptide: Ac-LEGREKVRAQI[Aib][Aib]EG[Nle]STWS[Aib]RK[PEG12]K([γGlu-γGlu-γGlu-Stearoyl])-NH2
SMILES: CCCCCCCCCCCCCCCCCC(=O)N[C@@H](CCC(=O)N[C@@H](CCC(=O)N[C@@H](CCC(=O)NCCCC[C@H](NC(=O)CCOCCOCCOCCOCCOCCOCCOCCOCCOCCOCCOCCOCCNC(=O)[C@H](CCCCN)NC(=O)[C@H](CCCNC(=N)N)NC(=O)C(C)(C)NC(=O)[C@H](CO)NC(=O)[C@H](Cc1c[nH]c2ccccc12)NC(=O)[C@@H](NC(=O)[C@H](CO)NC(=O)[C@H](CCCC)NC(=O)CNC(=O)[C@H](CCC(=O)O)NC(=O)C(C)(C)NC(=O)C(C)(C)NC(=O)[C@@H](NC(=O)[C@H](CCC(N)=O)NC(=O)[C@H](C)NC(=O)[C@H](CCCNC(=N)N)NC(=O)[C@@H](NC(=O)[C@H](CCCCN)NC(=O)[C@H](CCC(=O)O)NC(=O)[C@H](CCCNC(=N)N)NC(=O)CNC(=O)[C@H](CCC(=O)O)NC(=O)[C@H](CC(C)C)NC(C)=O)C(C)C)[C@@H](C)CC)[C@@H](C)O)C(N)=O)C(=O)O)C(=O)O)C(=O)O

EC50 (nM), OVCAR 5 cells (cAMP): 1.04 nM
EMax, OVCAR 5 cells (cAMP): 96%
B4: peptide of SEQ ID NO: 32 (peptide)
peptide: Ac-LEGREKVRAK(Ac)I[Aib][Aib]EG[Nle]STWS[Aib]RKK[PEG12]K([γGlu-γGlu-γGlu-Stearoyl])-NH2
SMILES: CCCCCCCCCCCCCCCCCC(=O)N[C@@H](CCC(=O)N[C@@H](CCC(=O)N[C@@H](CCC(=O)NCCCC[C@H](NC(=O)CCOCCOCCOCCOCCOCCOCCOCCOCCOCCOCCOCCOCCNC(=O)[C@H](CCCCN)NC(=O)[C@H](CCCCN)NC(=O)[C@H](CCCNC(=N)N)NC(=O)C(C)(C)NC(=O)[C@H](CO)NC(=O)[C@H](Cc1c[nH]c2ccccc12)NC(=O)[C@@H](NC(=O)[C@H](CO)NC(=O)[C@H](CCCC)NC(=O)CNC(=O)[C@H](CCC(=O)O)NC(=O)C(C)(C)NC(=O)C(C)(C)NC(=O)[C@@H](NC(=O)[C@H](CCCCNC(C)=O)NC(=O)[C@H](C)NC(=O)[C@H](CCCNC(=N)N)NC(=O)[C@@H](NC(=O)[C@H](CCCCN)NC(=O)[C@H](CCC(=O)O)NC(=O)[C@H](CCCNC(=N)N)NC(=O)CNC(=O)[C@H](CCC(=O)O)NC(=O)[C@H](CC(C)C)NC(C)=O)C(C)C)[C@@H](C)CC)[C@@H](C)O)C(N)=O)C(=O)O)C(=O)O)C(=O)O

EC50 (nM), OVCAR 5 cells (cAMP): 0.71 nM
EMax, OVCAR 5 cells (cAMP): 86%
B5: peptide of SEQ ID NO: 31 (peptide)
peptide: Ac-LEGREKVRAQI[Aib][Aib]EG[Nle]STWS[Aib]RKK[PEG12]K([γGlu-γGlu-γGlu-Stearoyl])-NH2
SMILES: CCCCCCCCCCCCCCCCCC(=O)N[C@@H](CCC(=O)N[C@@H](CCC(=O)N[C@@H](CCC(=O)NCCCC[C@H](NC(=O)CCOCCOCCOCCOCCOCCOCCOCCOCCOCCOCCOCCOCCNC(=O)[C@H](CCCCN)NC(=O)[C@H](CCCCN)NC(=O)[C@H](CCCNC(=N)N)NC(=O)C(C)(C)NC(=O)[C@H](CO)NC(=O)[C@H](Cc1c[nH]c2ccccc12)NC(=O)[C@@H](NC(=O)[C@H](CO)NC(=O)[C@H](CCCC)NC(=O)CNC(=O)[C@H](CCC(=O)O)NC(=O)C(C)(C)NC(=O)C(C)(C)NC(=O)[C@@H](NC(=O)[C@H](CCC(N)=O)NC(=O)[C@H](C)NC(=O)[C@H](CCCNC(=N)N)NC(=O)[C@@H](NC(=O)[C@H](CCCCN)NC(=O)[C@H](CCC(=O)O)NC(=O)[C@H](CCCNC(=N)N)NC(=O)CNC(=O)[C@H](CCC(=O)O)NC(=O)[C@H](CC(C)C)NC(C)=O)C(C)C)[C@@H](C)CC)[C@@H](C)O)C(N)=O)C(=O)O)C(=O)O)C(=O)O

EC50 (nM), OVCAR 5 cells (cAMP): 2.5 nM
EMax, OVCAR 5 cells (cAMP): 78%
B6: peptide of SEQ ID NO: 29 (peptide)
peptide: Ac-LEGREKVRAK(Ac)I[Aib][Aib]EG[Nle]ST[1Nal]S[Aib]RK[PEG12]K([γGlu-γGlu-γGlu-Palmitoyl])-NH2
SMILES: CCCCCCCCCCCCCCCC(=O)N[C@@H](CCC(=O)N[C@@H](CCC(=O)N[C@@H](CCC(=O)NCCCC[C@H](NC(=O)CCOCCOCCOCCOCCOCCOCCOCCOCCOCCOCCOCCOCCNC(=O)[C@H](CCCCN)NC(=O)[C@H](CCCNC(=N)N)NC(=O)C(C)(C)NC(=O)[C@H](CO)NC(=O)[C@H](Cc1cccc2ccccc12)NC(=O)[C@@H](NC(=O)[C@H](CO)NC(=O)[C@H](CCCC)NC(=O)CNC(=O)[C@H](CCC(=O)O)NC(=O)C(C)(C)NC(=O)C(C)(C)NC(=O)[C@@H](NC(=O)[C@H](CCCCNC(C)=O)NC(=O)[C@H](C)NC(=O)[C@H](CCCNC(=N)N)NC(=O)[C@@H](NC(=O)[C@H](CCCCN)NC(=O)[C@H](CCC(=O)O)NC(=O)[C@H](CCCNC(=N)N)NC(=O)CNC(=O)[C@H](CCC(=O)O)NC(=O)[C@H](CC(C)C)NC(C)=O)C(C)C)[C@@H](C)CC)[C@@H](C)O)C(N)=O)C(=O)O)C(=O)O)C(=O)O
